Measurements reported in publication PMC8136917, “The glycosyltransferase UGT76B1 modulates N-hydroxy-pipecolic acid homeostasis and plant immunity” (The Plant Cell, 2021).

Assays:
[1] = substrate: O=C(O)c1ccccc1O; test: UPLC-nanoESI-QTRAP-MS of product SAG; Hill regression; assay type: biochemical, Arabidopsis thaliana; conditions: UDP-glucose co-substrate (2 mM in methods); 5 min at 25°C (Figure 6 legend; methods say 15 min at 30°C)
[2] = substrate: O=C(O)[C@@H]1CCCCN1O; test: UPLC-nanoESI-QTRAP-MS of product NHP-OGlc; Hill regression; assay type: biochemical, Arabidopsis thaliana; conditions: UDP-glucose co-substrate (2 mM in methods); 5 min at 25°C (Figure 6 legend; methods say 15 min at 30°C)

B1: UGT76B1 (Arabidopsis thaliana) (protein)
chain: METRETKPVIFLFPFPLQGHLNPMFQLANIFFNRGFSITVIHTEFNSPNSSNFPHFTFVSIPDSLSEPESYPDVIEILHDLNSKCVAPFGDCLKKLISEEPTAACVIVDALWYFTHDLTEKFNFPRIVLRTVNLSAFVAFSKFHVLREKGYLSLQETKADSPVPELPYLRMKDLPWFQTEDPRSGDKLQIGVMKSLKSSSGIIFNAIEDLETDQLDEARIEFPVPLFCIGPFHRYVSASSSSLLAHDMTCLSWLDKQATNSVIYASLGSIASIDESEFLEIAWGLRNSNQPFLWVVRPGLIHGKEWIEILPKGFIENLEGRGKIVKWAPQPEVLAHRATGGFLTHCGWNSTLEGICEAIPMICRPSFGDQRVNARYINDVWKIGLHLENKVERLVIENAVRTLMTSSEGEEIRKRIMPMKETVEQCLKLGGSSFRNLENLIAYILSF
- Km [1]: 75 ± 2 µM
- Km [2]: 191 ± 14 µM
